Results taken from patent US11833164B2, “Methods of treating Fabry disease in patients having a mutation in the GLA gene” (Amicus Therapeutics, Inc., priority 2019, dated 2023).
Substitutions are numbered along the chain they refer to. Numbers in names are those of the source.

B1: G346V (protein)
chain: MQLRNPELHLGCALALRFLALVSWDIPGARALDNGLARTPTMGWLHWERFMCNLDCQEEPDSCISEKLFMEMAELMVSEGWKDAGYEYLCIDDCWMAPQRDSEGRLQADPQRFPHGIRQLANYVHSKGLKLGIYADVGNKTCAGFPGSFGYYDIDAQTFADWGVDLLKFDGCYCDSLENLADGYKHMSLALNRTGRSIVYSCEWPLYMWPFQKPNYTEIRQYCNHWRNFADIDDSWKSIKSILDWTSFNQERIVDVAGPGGWNDPDMLVIGNFGLSWNQQVTQMALWAIMAAPLFMSNDLRHISPQAKALLQDKDVIAINQDPLGKQGYQLRQGDNFEVWERPLSVLAWAVAMINRQEIGGPRSYTIAVASLGKGVACNPACFITQLLPVKRKLGFYEWTSRLRSHINPTGTVLLQLENTMQMSLKDLL
B2: M353L (protein)
chain: B1 chain with V346G, M353L
B3: A352T (protein)
chain: B1 chain with V346G, A352T
B4: W349C (protein)
chain: B1 chain with V346G, W349C
B5: A352S (protein)
chain: B1 chain with V346G, A352S
B6: M353K (protein)
chain: B1 chain with V346G, M353K
B7: W349L (protein)
chain: B1 chain with V346G, W349L
B8: V351E (protein)
chain: B1 chain with V346G, V351E
B9: A350S (protein)
chain: B1 chain with V346G, A350S
B10: A348D (protein)
chain: B1 chain with V346G, A348D
B11: L347I (protein)
chain: B1 chain with V346G, L347I
B12: M353T (protein)
chain: B1 chain with V346G, M353T
B13: V351A (protein)
chain: B1 chain with V346G, V351A
B14: A350T (protein)
chain: B1 chain with V346G, A350T
B15: I354R (protein)
chain: B1 chain with V346G, I354R
B16: N355D (protein)
chain: B1 chain with V346G, N355D
B17: A350V (protein)
chain: B1 chain with V346G, A350V
B18: A350G (protein)
chain: B1 chain with V346G, A350G

Tested on: mutant form of α-Gal A expressed in HEK-293 cells
Experiment: HEK assay (GLP HEK / Migalastat Amenability Assay): α-Gal A activity in lysates of transiently transfected HEK-293 cells incubated with or without 10 μM migalastat
Type: cell-based, human
Conditions: for Absolute increase (% WT) / Relative increase: 10 μM migalastat versus baseline; for Baseline α-Gal A activity (% WT): absence of migalastat; for Baseline α-Gal A activity (% WT) / 10 μM migalastat α-Gal A activity (% WT): percentage of baseline wild-type α-Gal A activity; for Baseline α-Gal A activity (% WT) / Baseline α-Gal A activity / 10 μM migalastat α-Gal A activity / 10 μM migalastat α-Gal A activity (% WT): mean ± SEM; for Baseline α-Gal A activity / 10 μM migalastat α-Gal A activity: lysates of HEK-293 cells transiently transfected with the mutant form; for Baseline α-Gal A activity: incubated 5 days in absence of migalastat; for 10 μM migalastat α-Gal A activity: incubated 5 days with 10 μM migalastat; for 10 μM migalastat α-Gal A activity (% WT): with 10 μM migalastat, 5 days
In short: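 HEK-293 cells transiently transfected with mutant α-Gal A and incubated with or without 10 μM migalastat; lysate activity given as nmol free 4-MU released per mg protein per hour. Values are mean±SEM.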

Molecule | Absolute increase (% WT) | Relative increase | Baseline α-Gal A activity (% WT) | Baseline α-Gal A activity [nmol/mg/h] | 10 μM migalastat α-Gal A activity [nmol/mg/h] | 10 μM migalastat α-Gal A activity (% WT)
B1 | 22.7 | 1.8 | 28.8 ± 2.4 | 11683 ± 1406 | 20902 ± 2356 | 51.4 ± 3.9
B2 | 14.6 | 1.2 | 66.6 ± 2.7 | 30347 ± 1572 | 36987 ± 1768 | 81.2 ± 2.7
B3 | 31.0 | 1.9 | 37.2 ± 2.1 | 15803 ± 777 | 29351 ± 1532 | 68.2 ± 3.2
B4 | 12.3 | 1.3 | 41.5 ± 2.6 | 17800 ± 1182 | 23210 ± 1299 | 53.7 ± 2.5
B5 | 12.1 | 1.2 | 52.8 ± 3.7 | 23476 ± 1901 | 28397 ± 1310 | 64.9 ± 2.5
B6 | 13.0 | 1.4 | 30.3 ± 1.8 | 13638 ± 804 | 19335 ± 946 | 43.4 ± 2.6
B7 | 11.8 | 1.3 | 35 ± 1.6 | 18128 ± 742 | 24184 ± 1517 | 46.8 ± 3.2
B8 | 7.2 | 1.7 | 10.5 ± 0.5 | 4760 ± 281 | 7910 ± 348 | 17.7 ± 1
B9 | 17.6 | 1.3 | 62.9 ± 4.2 | 26493 ± 1291 | 34474 ± 1484 | 80.5 ± 3.6
B10 | 8.4 | 1.2 | 41.6 ± 1.5 | 21682 ± 817 | 26025 ± 1129 | 50 ± 2.2
B11 | 17.4 | 1.3 | 65 ± 3.8 | 26815 ± 2533 | 33517 ± 2802 | 82.4 ± 5
B12 | 19.2 | 1.4 | 46.4 ± 2.8 | 15631 ± 1026 | 21953 ± 937 | 65.6 ± 3
B13 | 14.2 | 1.3 | 56.9 ± 4.7 | 24009 ± 1662 | 30218 ± 1531 | 71.1 ± 4.1
B14 | 14.4 | 1.3 | 47.4 ± 3.7 | 20227 ± 1499 | 26484 ± 1189 | 61.7 ± 2.7
B15 | 27.8 | 2.4 | 20.1 ± 1.2 | 9157 ± 633 | 21854 ± 1398 | 47.9 ± 2.6
B16 | 16.7 | 3.3 | 7.3 ± 0.4 | 3366 ± 241 | 11004 ± 832 | 24 ± 1.6
B17 | 22.3 | 1.8 | 27.9 ± 0.9 | 12786 ± 654 | 22855 ± 1012 | 50.2 ± 1.6
B18 | 9.5 | 1.2 | 41 ± 0.9 | 21459 ± 695 | 26360 ± 1002 | 50.5 ± 1.7
